# From paper PMC5552905, “Mechanisms of peptide sex pheromone regulation of conjugation in Enterococcus faecalis” (MicrobiologyOpen, 2017)
# B1: His-tagged PrgX (natural protein, Enterococcus faecalis (plasmid pCF10), UniProt Q04114 1-317, looked up)
# chain: MFKIGSVLKQIRQELNYHQIDLYSGIMSKSVYIKVEADSRPISVEELSKFSERLGVNFFEILNRAGMNTKSVNETGKEKLLISKIFTNPDLFDKNFQRIEPKRLTSLQYFSIYLGYISIAHHYNIEVPTFNKTITSDLKHLYDKRTTFFGIDYEIVSNLLNVLPYEEVSSIIKPMYPIVDSFGKDYDLTIQTVLKNALTISIMNRNLKEAQYYINQFEHLKTIKNISINGYYDLEINYLKQIYQFLTDKNIDSYLNAVNIINIFKIIGKEDIHRSLVEELTKISAKEKFTPPKEVTMYYENYVAIENNPIPEIKEQS
# notes: PrgX, master transcription regulator and sex pheromone receptor encoded by the Enterococcus faecalis plasmid pCF10; also called HisPrgX; Apo-PrgX
# What was measured:
# [1] = biological target: the molecule itself; assay: SEC; Superdex 200 Hiload 16/600, 20 mmol/L Tris-HCl pH 8.0, 300 mmol/L NaCl; affinity purified HisPrgX, HisPrgX-C or HisPrgX-I loaded; calibrated with gel-filtration standards; no DNA
# [2] = test system: LT DNA (XBS1 and XBS2 operator sites), P Q promoter region; assay type: binding, Enterococcus faecalis (plasmid pCF10); conditions: for supershift of LT DNA by purified tetramers: SEC-purified PrgX-C or PrgX-I tetramers, LT probe containing both XBSs
# Description: The LT DNA template containing XBS1 and XBS2 sites (LT DNA, pCF10 sequence from nt 8029 to nt8185 (Hirt et al., 2005)) was PCR amplified from pCF10 using primers as described in. The XBS1 DNA template only has XBS1 site (pCF10 sequence 8029–8131nt) was made by annealing oligos ‐129/‐47‐F (5′[…] 3′) and −129/−47R (5′[…] 3′) to obtain double‐stranded DNA. The XBS2 DNA template only has the XBS2 site (pCF10 sequence from 8109 to 8290; −66 to +114 relative to the prgQ transcription initiation site), and was PCR amplified from pCF10 using primers as described in Caserta et al., 2012. In DNA templates with 5‐bp or 10‐bp insertions, sequence GTACC or […] was inserted between XBS1 and XBS2 sites and at a position of 6‐bp after the XBS1 site. DNA probes were labeled at the 3′‐ends with DIG‐11‐ddUTP using the DIG Gel Shift kit (Roche) by following the manufacturer's instructions. EMSA assays were performed in 20 μl reactions: DIG‐labeled DNA, purified proteins, 1 μg of poly‐[d(A‐T)], 0.1 μg of poly‐L‐lysine, 1 × reaction buffer (20 mmol L^−1 Tris‐HCl, pH 7.9, 0.1 mol L^−1 NaCl, 0.1 mmol L^−1 EDTA, 10% glycerol, 0.01 mol L^−1 MgCl2). The reactions were incubated at room temperature for 15 min and loaded onto 5% polyacrylamide gels in 1 × TBE buffer (Tris, Borate, EDTA, pH 7.9). After electrophoresis at 100 V for 1.5 h, the DNA–protein complexes and DNA probes were electrotransferred onto a nylon membrane (Roche) at 6 V for 2 h using the GENIE electrophoretic blotter (Idea Scientific). DIG‐labeled DNA fragments were visualized by an enzyme immunoassay (DIG Gel Shift Kit, Roche) following the manufacturer's instructions. […] For the experiments reported here the powdered form of the peptides were initially solubilized in pure DMF at 0.5 mg/ml, and then diluted 10‐fold in KPBS for use as a working stock solution, which was diluted into the EMSA reactions to a final peptide concentration of 40 nmol L^−1.
# EMSA assays were performed using 8 fmol of digoxigenin‐labeled LT DNA probes with increasing amounts of PrgX protein. PrgX was preincubated for 5‐min at room temperature with 40 nmol L^−1 of C (a) or I (b) before adding LT DNA. PrgX concentrations: lanes 2 and 6: 38 nmol L^−1; lanes 3 and 7: 76 nmol L^−1; lanes 4 and 8: 190 nmol L^−1; lanes 5 and 9: 568 nmol L^−1. (c) Cartoon showing the predicted products formed by binding PrgX to LT DNA.
# His-tagged PrgX = biological target: B1; assay: SPR; conditions: both partners purified
# PrgX = biological target: T1, PrgX (Enterococcus faecalis (plasmid pCF10), UniProt Q04114 1-317); assay: EMSA; apo (DMF); single shifted band; EMSA: 20 mM Tris-HCl pH 7.9, 0.1 M NaCl, 0.1 mM EDTA, 10% glycerol, 10 mM MgCl2, 1 ug poly-[d(A-T)], 0.1 ug poly-L-lysine, 20 ul, room temperature 15 min, 8 fmol DIG-labelled probe; conditions: protein: recombinant; tags: GST removed with PreScission (pGEX6p-1); chain copies: 2; label: 3' DIG-11-ddUTP; blunt
# T1 sequence: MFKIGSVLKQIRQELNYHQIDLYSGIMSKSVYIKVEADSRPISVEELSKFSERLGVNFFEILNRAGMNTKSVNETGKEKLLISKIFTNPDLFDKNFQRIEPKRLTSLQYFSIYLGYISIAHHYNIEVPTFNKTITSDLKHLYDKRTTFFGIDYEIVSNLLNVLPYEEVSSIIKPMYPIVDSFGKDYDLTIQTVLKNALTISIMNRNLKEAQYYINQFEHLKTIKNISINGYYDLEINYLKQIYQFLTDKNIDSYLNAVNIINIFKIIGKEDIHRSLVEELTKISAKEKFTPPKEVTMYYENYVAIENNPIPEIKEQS
molecule,measurement,setting,value
B1,stoichiometry N,[1],2
"HisPrgX-I complex (complex, copies: 4 +) chain 1: MFKIGSVLKQIRQELNYHQIDLYSGIMSKSVYIKVEADSRPISVEELSKFSERLGVNFFEILNRAGMNTKSVNETGKEKLLISKIFTNPDLFDKNFQRIEPKRLTSLQYFSIYLGYISIAHHYNIEVPTFNKTITSDLKHLYDKRTTFFGIDYEIVSNLLNVLPYEEVSSIIKPMYPIVDSFGKDYDLTIQTVLKNALTISIMNRNLKEAQYYINQFEHLKTIKNISINGYYDLEINYLKQIYQFLTDKNIDSYLNAVNIINIFKIIGKEDIHRSLVEELTKISAKEKFTPPKEVTMYYENYVAIENNPIPEIKEQS chain 2: AITLIFI",stoichiometry N,[1],4
"PrgX‐C: PrgX/cCF10 complex (tetramer), purified by nickel affinity and size exclusion chromatography (protein, left off: His tag, end not stated, kept) chain 1: MFKIGSVLKQIRQELNYHQIDLYSGIMSKSVYIKVEADSRPISVEELSKFSERLGVNFFEILNRAGMNTKSVNETGKEKLLISKIFTNPDLFDKNFQRIEPKRLTSLQYFSIYLGYISIAHHYNIEVPTFNKTITSDLKHLYDKRTTFFGIDYEIVSNLLNVLPYEEVSSIIKPMYPIVDSFGKDYDLTIQTVLKNALTISIMNRNLKEAQYYINQFEHLKTIKNISINGYYDLEINYLKQIYQFLTDKNIDSYLNAVNIINIFKIIGKEDIHRSLVEELTKISAKEKFTPPKEVTMYYENYVAIENNPIPEIKEQS chain 2: LVTLVFV",relative protein concentration for supershift / singly shifted probe,[2],slightly more of the singly shifted probe is detected relative to PrgX/I complexes at equivalent protein concentrations
same,supershift of LT DNA by purified tetramers,[2],nearly complete supershift to band II at extremely low PrgX concentrations
"PrgX‐I: PrgX/iCF10 complex (tetramer), purified by nickel affinity and size exclusion chromatography (protein, left off: His tag, end not stated, kept) chain 1: MFKIGSVLKQIRQELNYHQIDLYSGIMSKSVYIKVEADSRPISVEELSKFSERLGVNFFEILNRAGMNTKSVNETGKEKLLISKIFTNPDLFDKNFQRIEPKRLTSLQYFSIYLGYISIAHHYNIEVPTFNKTITSDLKHLYDKRTTFFGIDYEIVSNLLNVLPYEEVSSIIKPMYPIVDSFGKDYDLTIQTVLKNALTISIMNRNLKEAQYYINQFEHLKTIKNISINGYYDLEINYLKQIYQFLTDKNIDSYLNAVNIINIFKIIGKEDIHRSLVEELTKISAKEKFTPPKEVTMYYENYVAIENNPIPEIKEQS chain 2: AITLIFI",relative protein concentration for supershift / singly shifted probe,[2],complete supershifting at slightly lower protein concentrations than PrgX/C
same,supershift of LT DNA by purified tetramers,[2],nearly complete supershift to band II at extremely low PrgX concentrations
"HisPrgX-C complex (complex, copies: 4 +) chain 1: MFKIGSVLKQIRQELNYHQIDLYSGIMSKSVYIKVEADSRPISVEELSKFSERLGVNFFEILNRAGMNTKSVNETGKEKLLISKIFTNPDLFDKNFQRIEPKRLTSLQYFSIYLGYISIAHHYNIEVPTFNKTITSDLKHLYDKRTTFFGIDYEIVSNLLNVLPYEEVSSIIKPMYPIVDSFGKDYDLTIQTVLKNALTISIMNRNLKEAQYYINQFEHLKTIKNISINGYYDLEINYLKQIYQFLTDKNIDSYLNAVNIINIFKIIGKEDIHRSLVEELTKISAKEKFTPPKEVTMYYENYVAIENNPIPEIKEQS chain 2: LVTLVFV",stoichiometry N,[1],4
"LVTLVFV (source: synthetic peptide, bought: New England Peptides) [cCF10 (C, clumping-inducing peptide, sex pheromone)]",Kd,His-tagged PrgX,0.686 pM
same,koff,His-tagged PrgX,5.5e-05 s⁻¹
"AITLIFI (source: synthetic peptide, bought: New England Peptides) [iCF10 (I, inhibitor peptide)]",Kd,His-tagged PrgX,0.152 pM
same,koff,His-tagged PrgX,2.09e-05 s⁻¹
XBS1 DNA (dsDNA) DNA 1: TGTTAATATTTTAATTTTAGGTATTGAATACGACACTCGAAGATGTGTTTATTAAGCTATATCCCTTTTTTTTAAAAAAAAATA DNA 2: TATTTTTTTTTAAAAAAAAGGGATATAGCTTAATAAACACATCTTCGAGTGTCGTATTCAATACCTAAAATTAAAATATTAACA,binding result,PrgX,binds
